Test results published in article doi:10.1101/2021.11.04.467292.

Tests used:
[1] = target: microtubules polymerised from bovine tubulin, paclitaxel-stabilised (bovine) (UniProt Q6B856); test: TIRF microscopy of Qdot-bound motor on immobilised microtubules
[2] = target: microtubules polymerised from bovine tubulin, paclitaxel-stabilised (bovine) (UniProt Q6B856); test: two-MT assay
[3] = target: KLIF motor domain lacking the N-terminal extension fused to GFP (Trypanosoma brucei); test: gliding filament motility assay

KLIF motor domain construct (amino acids 1-672) fused to a C-terminal biotin tag (domain or fragment)
half-life of association with MTs [1]: > 5 min

KLIF motor domain construct (amino acids 1-672) fused to a C-terminal GFP (mClover3) tag (domain or fragment)
half-life of plus end to plus end tethering of two MTs by KLIF [2]: 1.7 min

microtubules polymerised from bovine tubulin, paclitaxel-stabilised (from UniProt Q6B856 1-445) (complex)
percent of filaments dissociated within 2.5 minutes [3]: > 50%
